Experimental data taken from article PMC6980713.

Target: T1, HMCES SRAP domain (SRAPd) (Homo sapiens, UniProt Q96FZ2 1-270)
T1 sequence: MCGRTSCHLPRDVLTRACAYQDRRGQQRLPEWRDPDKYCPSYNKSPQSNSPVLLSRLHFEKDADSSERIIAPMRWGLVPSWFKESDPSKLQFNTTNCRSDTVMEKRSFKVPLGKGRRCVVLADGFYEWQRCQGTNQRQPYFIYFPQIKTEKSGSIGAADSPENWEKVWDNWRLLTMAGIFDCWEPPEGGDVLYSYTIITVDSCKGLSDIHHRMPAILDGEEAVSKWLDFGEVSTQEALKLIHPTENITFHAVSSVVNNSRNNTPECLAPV
Test: X-ray crystallography

B1: P5nt palindromic DNA (dsDNA)
DNA 1: CAACGTTGTTTTT
DNA 2: CAACGTTGTTTTT
binding result: binds
